Results taken from PMC5771576.
Like-named read-outs stand apart in the source and are kept apart here.

Assays:
Cys14 [1] = target: T1, Cys14 (UniProt position 15, AANWKCNGSES); test: chemical modification; settings: not stated for the 1 min MMTS incubation (activity assay at 25°C); 100 mM TEA, 10 mM EDTA; ligand-free folded enzyme, 250 ug/mL
Cys14 [2] = target: T2, Cys14 (UniProt position 14, AANWKCNGSQQ); settings: cited from earlier work
Cys14 [3] = target: T2, Cys14; test: chemical modification; settings: not stated for the 1 min MMTS incubation (activity assay at 25°C); 100 mM TEA, 10 mM EDTA; ligand-free folded enzyme, 250 ug/mL
Cys14 [4] = target: T1, Cys14; settings: cited from earlier work

Q: For “Triosephosphate isomerase triple mutant TcTIM: L28F, L100A, Q115A (Trypanosoma cruzi; L28F;L100A;Q115A)”, which pKa (Cys14 [1]) is on record?
A: 10.69 ± 0.01

Q: Which pKa (Cys14 [2]) does the source give for “Triosephosphate isomerase (WT TbTIM) (Trypanosoma brucei)” here?
A: 10.53

Q: And the pKa (Cys14 [3])?
A: 10.56 ± 0.22

Q: Which pKa (Cys14 [3]) does the source give for “Triosephosphate isomerase triple mutant TbTIM: F28L, A100L, A115Q (Trypanosoma brucei; F28L;A100L;A115Q)” here?
A: 9.23 ± 0.03

Q: With “Triosephosphate isomerase (WT TcTIM) (Trypanosoma cruzi)” as the substance, how does the pKa (Cys14 [4]) read?
A: 9.27

Q: And the pKa (Cys14 [1])?
A: 9.24 ± 0.04
